Source: patent US6670183

What was measured:
[1] = biological target: GP88 cell surface receptors on CCL64 mink lung epithelial cells (mink); test: Scatchard analysis, 125I-rGP88 on CCL64 cells; low affinity class of sites
[2] = biological target: GP88 cell surface receptors on CCL64 mink lung epithelial cells (mink); test: Scatchard analysis, 125I-rGP88 on CCL64 cells; high affinity class of sites
[3] = biological target: GP88 cell surface receptors on CCL64 mink lung epithelial cells (mink); test: Scatchard analysis, 125I-rGP88 displaced by cold rGP88 on CCL64 cells in suspension; low affinity class of sites
[4] = biological target: GP88 cell surface receptors on CCL64 mink lung epithelial cells (mink); test: Scatchard analysis, 125I-rGP88 displaced by cold rGP88 on CCL64 cells in suspension; high affinity class of sites

B1: recombinant GP88 (rGP88), mouse GP88 expressed in baculovirus infected Sf9 insect cells (ligand)
chain: TQCPDGQFCPVACCLDQGGANYSCCNPLLDTWPRITSHHLDGSCQTHGHCPAGYSCLLTVSGTSSCCPFSKGVSCGDGYHCCPQGFHCSADGKSCFQMSDNPLGAVQCPGSQFECPDSATCCIMVDGSWGCCPMPQASCCEDRVHCCPHGASCDLVHTRCVSPTGTHTLLKKFPAQKTNSAVSLPFSVVCPDAKTQCPDDSTCCELPTGKYGCCPMPNAICCSDHLHCCPQDTVCDLIQSKCLSKNYTTDLLTKLPGYPVKEVKCDMEVSCPEGYTCCRLNTGAWGCCPFAKAVCCDDHIHCCPAGFQCHTEKGTCEMGILQVGWMKKVIAPLRLPDPQILKSDTPCDDFTRCPTNNTCCKLNSGDWGCCPIPEAVCCSDNQHCCPQGFTCLAQGYCQKGDTMVAGLEKIPARQTTPLQIGDIGCDQHTSCPVGQTCCPSLKGSWACCQLPHAVCCEDRQHCCPAGYTCNVKARTCEKDVDFIQPPVLLTLGPKVGNVECGEGHFCHDNQTCCKDSAGVWACCPYLKGVCCRDGRHCCPGGFHCSARGTKCLRKKIPRWDMFLRDPVPRPLL
modifications: the labelled form is 125I-iodinated by the chloramine T method (residues not stated)
Question: What does the source list for B1?
Answer: sites/cell [1]: 17000 sites/cell; sites/cell [2]: 560 sites/cell; Kd [3]: 3.9 nM; Kd [4]: 0.043 nM
